PMC7061307 (Molecular cell, 2019)

Key:
[1] = IP and anti-phosphothreonine blot; conditions: glycan lost; control: TBP3X-WT cells
[2] = TBP:BTAF1 interaction under LG, HG, TMG, Ac4SGlcNAc; conditions: glycan lost; control: TBP3X-WT cells
[3] = ChIP-qPCR ± TMG; conditions: glycan lost; control: TBP3X-WT cells
[4] = biological target: 3XFLAG-TBP T114A (p3XFLAG-cmv10 construct) (human, UniProt P20226 1-339, T114A); experiment: co-IP

Row | fold amount of BTAF1 co-IPed against TBP^WT [4] | Binder | other: TBP phosphorylation [1] | other: response of BTAF1 binding to glucose/TMG/Ac4SGlcNAc [2] | other: TMG-induced rise in promoter occupancy [3]
1 | – | TATA-box binding protein (TBP): TBP3X-T114A (protein) parent chain: MDQNNSLPPYAQGLASPQGAMTPGIPIFSPMMPYGTGLTPQPIQNTNSLSILEEQQRQQQQQQQQQQQQQQQQQQQQQQQQQQQQQQQQQQQQQQAVAAAAVQQSTSQQATQGTSGQAPQLFHSQTLTTAPLPGTTPLYPSPMTPMTPITPATPASESSGIVPQLQNIVSTVNLGCKLDLKTIALRARNAEYNPKRFAAVIMRIREPRTTALIFSSGKMVCTGAKSEEQSRLAARKYARVVQKLGFPAKFLDFKIQNMVGSCDVKFPIRLEGLVLTHQQFSSYEPELFPGLIYRMIKPRIVLLIFVSGKVVLTGAKVRAEIYEAFENIYPILKGFRKTT | no change | abolishes | abolishes
2 | ~3 fold | B-TFIID TATA-Box Binding Protein Associated Factor 1 (BTAF1), endogenous human (natural protein, UniProt O14981 1-1849, looked up) MAVSRLDRLFILLDTGTTPVTRKAAAQQLGEVVKLHPHELNNLLSKVLIYLRSANWDTRIAAGQAVEAIVKNVPEWNPVPRTRQEPTSESSMEDSPTTERLNFDRFDICRLLQHGASLLGSAGAEFEVQDEKSGEVDPKERIARQRKLLQKKLGLNMGEAIGMSTEELFNDEDLDYTPTSASFVNKQPTLQAAELIDSEFRAGMSNRQKNKAKRMAKLFAKQRSRDAVETNEKSNDSTDGEPEEKRRKIANVVINQSANDSKVLIDNIPDSSSLIEETNEWPLESFCEELCNDLFNPSWEVRHGAGTGLREILKAHGKSGGKMGDSTLEEMIQQHQEWLEDLVIRLLCVFALDRFGDFVSDEVVAPVRETCAQTLGVVLKHMNETGVHKTVDVLLKLLTQEQWEVRHGGLLGIKYALAVRQDVINTLLPKVLTRIIEGLQDLDDDVRAVAAASLVPVVESLVYLQTQKVPFIINTLWDALLELDDLTASTNSIMTLLSSLLTYPQVQQCSIQQSLTVLVPRVWPFLHHTISSVRRAALETLFTLLSTQDQNSSSWLIPILPDMLRHIFQFCVLESSQEILDLIHKVWMELLSKASVQYVVAAACPWMGAWLCLMMQPSHLPIDLNMLLEVKARAKEKTGGKVRQGQSQNKEVLQEYIAGADTIMEDPATRDFVVMRARMMAAKLLGALCCCICDPGVNVVTQEIKPAESLGQLLLFHLNSKSALQRISVALVICEWAALQKECKAVTLAVQPRLLDILSEHLYYDEIAVPFTRMQNECKQLISSLADVHIEVGNRVNNNVLTIDQASDLVTTVFNEATSSFDLNPQVLQQLDSKRQQVQMTVTETNQEWQVLQLRVHTFAACAVVSLQQLPEKLNPIIKPLMETIKKEENTLVQNYAAQCIAKLLQQCTTRTPCPNSKIIKNLCSSLCVDPYLTPCVTCPVPTQSGQENSKGSTSEKDGMHHTVTKHRGIITLYRHQKAAFAITSRRGPTPKAVKAQIADLPAGSSGNILVELDEAQKPYLVQRRGAEFALTTIVKHFGGEMAVKLPHLWDAMVGPLRNTIDINNFDGKSLLDKGDSPAQELVNSLQVFETAAASMDSELHPLLVQHLPHLYMCLQYPSTAVRHMAARCVGVMSKIATMETMNIFLEKVLPWLGAIDDSVKQEGAIEALACVMEQLDVGIVPYIVLLVVPVLGRMSDQTDSVRFMATQCFATLIRLMPLEAGIPDPPNMSAELIQLKAKERHFLEQLLDGKKLENYKIPVPINAELRKYQQDGVNWLAFLNKYKLHGILCDDMGLGKTLQSICILAGDHCHRAQEYARSKLAECMPLPSLVVCPPTLTGHWVDEVGKFCSREYLNPLHYTGPPTERIRLQHQVKRHNLIVASYDVVRNDIDFFRNIKFNYCILDEGHVIKNGKTKLSKAVKQLTANYRIILSGTPIQNNVLELWSLFDFLMPGFLGTERQFAARYGKPILASRDARSSSREQEAGVLAMDALHRQVLPFLLRRMKEDVLQDLPPKIIQDYYCTLSPLQVQLYEDFAKSRAKCDVDETVSSATLSEETEKPKLKATGHVFQALQYLRKLCNHPALVLTPQHPEFKTTAEKLAVQNSSLHDIQHAPKLSALKQLLLDCGLGNGSTSESGTESVVAQHRILIFCQLKSMLDIVEHDLLKPHLPSVTYLRLDGSIPPGQRHSIVSRFNNDPSIDVLLLTTHVGGLGLNLTGADTVVFVEHDWNPMRDLQAMDRAHRIGQKRVVNVYRLITRGTLEEKIMGLQKFKMNIANTVISQENSSLQSMGTDQLLDLFTLDKDGKAEKADTSTSGKASMKSILENLSDLWDQEQYDSEYSLENFMHSLK | – | – | –
